# Assay results as given in patent US10233241B2 (priority 2014, dated 2019).
# Where a chain is given by its changes, count along the chain named.
# B1: XA9644: Profile III VHH of a new sequence family, SEQ ID NO: 74 (protein, listed as Lama glama)
# VHH: QVQLVESGGGLVRPGGSLRLSCVDSERIFSISAMGWYRQAPGKQRELVATITSGGTTNYADSVKGRFTISGDTAKNMVYLQMSSLKPEDTAVYYCAADMEVWDYTDGDDDDYWGQGTQVTVSSAAAHHHHHHGAAEQKLISEEDLNGAA
# B2: XA8635: Mor1-specific VHH, SEQ ID NO: 5, Profile II, binds extracellular part and orthosteric pocket (protein, listed as Lama glama)
# VHH: QVQLVESGGGLVQAGGSLRLSCAASGSISSISTMGWYRQAPGNERELVAAITSGGSTNYADSVKGRFTISRDNAKNTVYLQMNSLKPEDTAVYYCNFKYYSGSYFYKSEYDYWGQGTQVTVSSAAAHHHHHHGAAEQKLISEEDLNGAA
# B3: XA8633: Mor1-specific VHH, SEQ ID NO: 1, Profile I, candidate G-protein mimicking, active state stabilizing (protein, listed as Lama glama)
# VHH: QVQLVESGGGLVRPGGSRRLSCVDSERTSYPMGWFRRAPGKEREFVASITWSGIDPTYADSVADRFTISRDVANNTLYLQMNSLKHEDTAVYYCAARAPVGQSSSPYDYDYWGQGTQVTVSSAAAHHHHHHGAAEQKLISEEDLNGAA
# B4: XA8641: Mor1-specific VHH, SEQ ID NO: 3, Profile I (protein, listed as Lama glama)
# VHH: B3 VHH with R18L, E26G
# B5: XA8639: Mor1-specific VHH, SEQ ID NO: 2, Profile I, G-protein mimetic (protein, listed as Lama glama)
# VHH: B3 VHH with R18L, I68T
# B6: XA8643: Mor1-specific VHH, SEQ ID NO: 4, Profile I (protein, listed as Lama glama)
# VHH: B3 VHH with R18L
# B7: bivalent XA8635: genetic head to tail fusion of XA8635, separated by a 9GS linker, SEQ ID NO: 49 (protein)
# chain: QVQLVESGGGLVQAGGSLRLSCAASGSISSISTMGWYRQAPGNERELVAAITSGGSTNYADSVKGRFTISRDNAKNTVYLQMNSLKPEDTAVYYCNFKYYSGSYFYKSEYDYWGQGTQVTVSSGGGGSGGGSQVQLQESGGGLVQAGGSLRLSCAASGSISSISTMGWYRQAPGNERELVAAITSGGSTNYADSVKGRFTISRDNAKNTVYLQMNSLKPEDTAVYYCNFKYYSGSYFYKSEYDYWGQGTQVTVSSAAAEQKLISEEDLNGAAHHHHHH
# B8: XA8727: Mor1-specific VHH, SEQ ID NO: 6, Profile III, intracellular binder (protein, listed as Lama glama)
# VHH: QVQLVESGGGLVQAGGSLRLSCAASGFTFDDYAIAWFRQAPGKEREGVSCISSSDGSTYYADSVKGRFTISNDNAKNTVYLQMNSLKPEDTAVYYCAADLSRSCGRGYRYLEVWGQGTQVTVSSAAAHHHHHHGAAEQKLISEEDLNGAA
# Key:
# [1] = test system: β-arrestin1 or β-arrestin2; settings: cell culture assays; cited from earlier work
# [2] = test system: inflammatory pain model in rat; settings: cited from earlier work
# Delta mMor1 [3] = target: T1, Delta mMor1 (Mus musculus, UniProt P42866, INS358LEVLFQGP/INS51ENLYFQ); assay: Flow cytometry binding of VHHs to Delta mMor1/Sf9 cells with or without Mor1 ligand; settings: for Flow cytometry binding profile on Delta mMor1/Sf9 cells / Side of Mor1 bound (intact versus permeable Sf9 cells, Topro3 gating): periplasmic extracts; for Flow cytometry binding profile on Delta mMor1/Sf9 cells: no ligand, 20 μM Dmt1-Dalda or 20 μM naloxone, mock GPCR Sf9 as control
# T1 construct: expressed in transfected cells; host or cells: Sf9 insect cells, baculovirus-infected (BestBac)
# human Mor1 = target: T2, human Mor1 (Homo sapiens, UniProt P35372); assay: Flow cytometry binding of mono- and bivalent XA8635 to Mor overexpressing CHO cells; settings: for Binding to Mor overexpressing CHO cells vs parental non-transfected CHO cells: absence of any Mor1 ligand
# T2 construct: expressed in transfected cells; host or cells: CHO cells
# Delta mMor1 [4] = target: T1, Delta mMor1; assay: Radioligand displacement by XA8635 on Delta mMor1/Sf9 membranes; format: binding; settings: 7 μg Delta mMor1/Sf9 membranes, 1 nM radioligand, no agonist
# Method: (§1) A radioligand competition assay was performed as described in Example 6 with minor modifications: 5 μg of WT human hMor1/CHO membranes or 7 μg of Delta mMor1/Sf9 membranes were incubated with a concentration range of purified XA8635 and 1 nM of the radioligand (no agonist was added). The mixture was incubated for 1 hour at RT and after washing, filter bound radioligand was measured.
# truncDelta mMor1 = target: T3, truncDelta mMor1 (Mus musculus, UniProt P42866); assay: ELISA of VHH binding to truncDelta mMor1 reconstituted in liposomes; settings: periplasmic extracts, 10 μM Dmt1-Dalda
# T3 construct: N- and C-termini are removed by enzymatic proteolysis, resulting in truncDelta mMor1; TEV cleavage site ENLYFQ (after G51 of P42866) (internal); made in house; host or cells: Sf9 insect cells (baculovirus); purified and reconstituted into lipid vesicles
# Mor1 [5] = target: T4, Mor1 (Mus musculus, UniProt P42866); assay: Affinity of XA8635 for ligand-free Mor1; settings: read-out: Ki of binding to the receptor
# WT human Mor1 = target: T5, WT human Mor1 (Homo sapiens, UniProt P35372); assay: Radioligand displacement by XA8635 on WT human hMor1/CHO membranes; format: binding; settings: 5 μg WT human hMor1/CHO membranes, 1 nM radioligand, no agonist
# T5 construct: purchased Perkin Elmer ES-542-M400UA; host or cells: CHO cells overexpressing wild-type human Mor1 (membranes)
# Method: as §1
# Mor1 [6] = target: T4, Mor1; format: binding
# T2 sequence (P35372 whole entry): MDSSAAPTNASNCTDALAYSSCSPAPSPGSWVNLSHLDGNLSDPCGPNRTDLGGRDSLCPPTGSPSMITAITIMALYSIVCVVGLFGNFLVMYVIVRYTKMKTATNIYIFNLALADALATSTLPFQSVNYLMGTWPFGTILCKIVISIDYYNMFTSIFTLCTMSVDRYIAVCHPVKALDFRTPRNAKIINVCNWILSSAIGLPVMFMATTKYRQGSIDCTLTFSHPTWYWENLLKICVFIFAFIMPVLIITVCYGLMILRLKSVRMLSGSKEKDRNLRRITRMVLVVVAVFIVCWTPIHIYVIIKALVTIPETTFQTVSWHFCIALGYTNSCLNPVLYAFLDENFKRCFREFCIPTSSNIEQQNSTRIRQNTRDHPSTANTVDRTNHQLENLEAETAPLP
# T5 sequence (P35372 whole entry): as above
Molecule,Flow cytometry binding profile on Delta mMor1/Sf9 cells (Delta mMor1 [3]),"Side of Mor1 bound (intact versus permeable Sf9 cells, Topro3 gating) (Delta mMor1 [3])",Binding to truncDelta mMor1 liposomes in ELISA (truncDelta mMor1),also measured
COC(=O)[C@@H]1C[C@H](OC(=O)c2ccccc2)C(=O)[C@H]2[C@@]1(C)CC[C@H]1C(=O)O[C@H](c3ccoc3)C[C@]21C [herkinorin],,,,"Recruitment of β-arrestin1 or β-arrestin2 [1]: does not recruit β-arrestin1 or β-arrestin2; Antinociception in morphine-tolerant rats ([2]; morphine-tolerant rats): produces antinociception in morphine-tolerant rats; Formalin-induced flinching ([2]; rat, 10 mg/kg, i.pl., reversed by naloxone): reduces formalin-induced flinching to the same degree as morphine; Antinociceptive tolerance ([2]; repeated treatment over a 5-day period): does not develop"
B1,Profile III,,,
B2,Profile II,extracellular part of the receptor,confirmed to bind Mor1 in ELISA,"Binding to Mor overexpressing CHO cells vs parental non-transfected CHO cells (human Mor1): dose-dependent specific binding; Radioligand displacement (Delta mMor1 [4]): dose-dependent increase in radioligand displacement; Fluorescence profile of purified VHH compared to the one obtained with periplasm (Delta mMor1 [3]; 1 μM purified VHH): identical fluorescence profile; Binding to Sf9 cells overexpressing Mor1 in presence of Mor1 ligand (agonist or antagonist) (Delta mMor1 [3]; 1 μM purified VHH, intact and permeable cells): loses its ability to specifically bind; Ki (Mor1 [5]): ~12 nM; Radioligand displacement (WT human Mor1): dose-dependent increase in radioligand displacement"
B3,Profile I,intracellular epitopes,confirmed to bind Mor1 in ELISA,Fluorescence profile of purified VHH compared to the one obtained with periplasm (Delta mMor1 [3]; 1 μM purified VHH): identical fluorescence profile
B4,Profile I,intracellular epitopes,confirmed to bind Mor1 in ELISA,
B5,Profile I,intracellular epitopes,confirmed to bind Mor1 in ELISA,Enhancement of affinity for BU72 (Mor1 [6]): 176 fold
B6,Profile I,intracellular epitopes,confirmed to bind Mor1 in ELISA,
B7,,,,Increased fluorescence versus monovalent XA8635 (human Mor1; 1 μM): approximately 34%; Binding to Mor overexpressing CHO cells vs parental non-transfected CHO cells (human Mor1): dose-dependent specific binding
B8,Profile III,intracellular part of Mor1,confirmed to bind Mor1 in ELISA,
